Results taken from US20260308536A1, “NOVEL URICASE VARIANTS AND METHODS OF USE THEREOF” (priority 2023, published 2026).

Legend:
[1] = substrate: O=c1[nH]c(=O)c2[nH]c(=O)[nH]c2[nH]1; test: purified protein, by the assay type; assay type: biochemical, chimeric pig-baboon; settings: other: role: substrate
Procedure: Variants 1 (dURC1) and 3 (dURC3) were identified as possible lead candidates. Besides the mutations according to the library design, i.e., the designed mutations of F75Q; K79N; T83Q; E90H; F96H; I100E; Y105D; V119K; F172Y; L260N; and I262T, dURC3 comprised an off-position amino acid mutation K76N. An off-position amino acid mutation is defined as having a non-designed amino acid at a non-target site. […] Specifically, in the dURC1 backbone, the following mutations were tested separately: L154T; K155D; K155N; L157H; L157T; T159E; T159Q; and S162D; and in the dURC3 backbone, the K155N mutation was tested. […] The characteristics, including yield, activity, melting temperature measured by DSF, temperature at which 50% of normal activity was lost after heating measured by heat stress activity assay, Michaelis-Menten kinetics parameters, of variants 1, 2, 3, and 4 (i.e., dURC1, dURC2, dURC3 and dURC4), as well as the wild type chimeric pig-baboon uricase, are summarized in Table 2. The amino acid sequences of dURC1, dURC2, dURC3 and dURC4 are shown as SEQ ID NO: 1, 2, 3, and 4, respectively.
(§1) The activity of the purified enzymes was quantified by Michaelis Menten kinetic analysis, using the solution phase microplate assay across a range of substrate concentrations (FIG. 4B).

[2] = substrate: O=c1[nH]c(=O)c2[nH]c(=O)[nH]c2[nH]1; test: purified protein, by the assay type; assay type: biochemical, chimeric pig-baboon; settings: other: role: substrate; remark: listed apart in the source
[3] = substrate: O=c1[nH]c(=O)c2[nH]c(=O)[nH]c2[nH]1; test: Michaelis-Menten kinetics, wild type Arthrobacter globiformis uricase; assay type: biochemical; settings: other: role: substrate; non-PEGylated; Table 8B; pH 10.5
Description: Non-PEGylated deimmunized Arthrobacter globiformis uricase variants were created by introducing additional amino acid substitutions into the R49S variant Arthrobacter globiformis uricase of SEQ ID NO:6 disclosed in Nyborg et al., PLOS One, 2016, DOI: 10.1371/journal.pone.0167935. For ease of description, the R49S variant Arthrobacter globiformis uricase of SEQ ID NO:6 is referred to as the wild type Arthrobacter globiformis uricase herein, as it serves as the enzyme being mutated to arrive at the variants. The monomeric form of the wild type Arthrobacter globiformis uricase comprises the amino acid sequence of SEQ ID NO:6, where methionine is residue #1. The specified mutations in the Arthrobacter globiformis uricase variants of this example are indexed to methionine as residue #1, as in SEQ ID NO:6. […]
Select Arthrobacter globiformis uricase variants MedU_1B7, MedU_5B8, MedU_1C2, MedU_5C9, MedU_5E6, MedU_5E9, and MedU_IF1 were subject to further characterization by comparing their expression yields, Michaelis-Menten kinetics parameters, and thermostability measured by temperatures at which 50% of normal activity was lost determined by heat stress activity assay, with those of the wild type Arthrobacter globiformis uricase. The expression yields were determined as described above in the “Methods” section. […]

[4] = substrate: O=c1[nH]c(=O)c2[nH]c(=O)[nH]c2[nH]1; test: Michaelis-Menten kinetics, MedU_5E9; assay type: biochemical, Arthrobacter globiformis; settings: other: role: substrate; non-PEGylated; Table 8B; pH 10.5
Procedure: (§2) Select Arthrobacter globiformis uricase variants MedU_1B7, MedU_5B8, MedU_1C2, MedU_5C9, MedU_5E6, MedU_5E9, and MedU_IF1 were subject to further characterization by comparing their expression yields, Michaelis-Menten kinetics parameters, and thermostability measured by temperatures at which 50% of normal activity was lost determined by heat stress activity assay, with those of the wild type Arthrobacter globiformis uricase. The expression yields were determined as described above in the “Methods” section. The Michaelis-Menten kinetics parameters kcat and KM, and temperatures at which 50% of normal activity was lost (i.e., 50% thermal inactivation temperatures, referred to as TI50 (° C.)) measured by heat stress activity assay were likewise determined using the methods described in Example 1.

[5] = substrate: O=c1[nH]c(=O)c2[nH]c(=O)[nH]c2[nH]1; test: purified protein, by the assay type; assay type: biochemical, chimeric pig-baboon; settings: other: role: substrate; remark: listed apart in the source
Description: The monomeric form of the wild type chimeric pig-baboon uricase comprises the amino acid sequence of SEQ ID NO:5, where threonine is residue #1. The specified mutations in the chimeric pig-baboon uricase variants of this example are indexed to threonine as residue #1, as in SEQ ID NO:5. […] The expression vector pET-26b(+) encodes a His tag containing 6 histidine residues at the C-terminus of the inserted uricase gene.
as §1

[6] = substrate: O=c1[nH]c(=O)c2[nH]c(=O)[nH]c2[nH]1; test: Michaelis-Menten kinetics, MedU_1F1; assay type: biochemical, Arthrobacter globiformis; settings: other: role: substrate; non-PEGylated; Table 8B; pH 10.5
Procedure: as §2

[7] = substrate: O=c1[nH]c(=O)c2[nH]c(=O)[nH]c2[nH]1; test: Michaelis-Menten kinetics, MedU_5C9; assay type: biochemical, Arthrobacter globiformis; settings: other: role: substrate; non-PEGylated; Table 8B; pH 10.5
Procedure: as §2

[8] = substrate: O=c1[nH]c(=O)c2[nH]c(=O)[nH]c2[nH]1; test: Michaelis-Menten kinetics, MedU_5B8; assay type: biochemical, Arthrobacter globiformis; settings: other: role: substrate; non-PEGylated; Table 8B; pH 10.5
Procedure: as §2

[9] = non-PEGylated, pH 10.5, 25° C., Table 2
[10] = purified enzyme, non-linear regression, Table 3, pH 10.5, 25.0 °C

B1: chimeric pig-baboon uricase variant 1 (dURC1), F75Q/K79E/T83Q/E90H/F96H/I100H/Y105D/V119K/Y127H/F172Y/L260N, SEQ ID NO: 1 (Sus scrofa; … (protein)
chain: TYKKNDEVEFVRTGYGKDMIKVLHIQRDGKYHSIKEVATTVQLTLSSKKDYLHGDNSDVIPTDTIKNTVNVLAKQKGIESIEQFAVTICHHFLSSHKHVHRAQVDVEEVPWKRFEKNGKKHVHAFIHTPTGTHFCEVEQIRNGPPVIHSGIKDLKVLKTTQSGFEGFIKDQYTTLPEVKDRCFATQVYCKWRYHQGRDVDFEATWDTVRSIVLQKFAGPYDKGEYSPSVQKTLYDIQVLTLGQVPEIEDMEISLPNIHYNNIDMSKMGLINKEEVLLPLDNPYGKITGTVKRKLSSRL
notes: purified
- Km [1, 9]: 678 µM
- Km [1, 10]: 700 ± 100 µM

B2: chimeric pig-baboon uricase variant 3 (dURC3), F75Q/K76N/K79N/T83Q/E90H/F96H/I100E/Y105D/V119K/F172Y/L260N/I262T, SEQ ID NO: 3 (Sus scrofa; … (protein)
chain: TYKKNDEVEFVRTGYGKDMIKVLHIQRDGKYHSIKEVATTVQLTLSSKKDYLHGDNSDVIPTDTIKNTVNVLAKQNGINSIEQFAVTICHHFLSSHKHVERAQVDVEEVPWKRFEKNGKKHVHAFIYTPTGTHFCEVEQIRNGPPVIHSGIKDLKVLKTTQSGFEGFIKDQYTTLPEVKDRCFATQVYCKWRYHQGRDVDFEATWDTVRSIVLQKFAGPYDKGEYSPSVQKTLYDIQVLTLGQVPEIEDMEISLPNIHYNNTDMSKMGLINKEEVLLPLDNPYGKITGTVKRKLSSRL
notes: purified
- Km [2, 9]: 595 µM
- Km [2, 10]: 600 ± 70 µM

B3: chimeric pig-baboon uricase variant 4 (dURC4), F75Q/K76N/K79N/T83Q/E90H/F96H/I100E/Y105D/V119K/K155N/F172Y/L260N/I262T, SEQ ID NO: 4 (Sus scrofa; … (protein)
chain: TYKKNDEVEFVRTGYGKDMIKVLHIQRDGKYHSIKEVATTVQLTLSSKKDYLHGDNSDVIPTDTIKNTVNVLAKQNGINSIEQFAVTICHHFLSSHKHVERAQVDVEEVPWKRFEKNGKKHVHAFIYTPTGTHFCEVEQIRNGPPVIHSGIKDLNVLKTTQSGFEGFIKDQYTTLPEVKDRCFATQVYCKWRYHQGRDVDFEATWDTVRSIVLQKFAGPYDKGEYSPSVQKTLYDIQVLTLGQVPEIEDMEISLPNIHYNNTDMSKMGLINKEEVLLPLDNPYGKITGTVKRKLSSRL
notes: purified
- Km [1, 9]: 347 µM
- Km [1, 10]: 350 ± 20 µM

B4: chimeric pig-baboon uricase variant 2 (dURC2), F75Q/K79E/T83Q/E90H/F96H/I100H/Y105D/V119K/Y127H/K155N/F172Y/L260N, SEQ ID NO: 2 (Sus scrofa; … (protein)
chain: TYKKNDEVEFVRTGYGKDMIKVLHIQRDGKYHSIKEVATTVQLTLSSKKDYLHGDNSDVIPTDTIKNTVNVLAKQKGIESIEQFAVTICHHFLSSHKHVHRAQVDVEEVPWKRFEKNGKKHVHAFIHTPTGTHFCEVEQIRNGPPVIHSGIKDLNVLKTTQSGFEGFIKDQYTTLPEVKDRCFATQVYCKWRYHQGRDVDFEATWDTVRSIVLQKFAGPYDKGEYSPSVQKTLYDIQVLTLGQVPEIEDMEISLPNIHYNNIDMSKMGLINKEEVLLPLDNPYGKITGTVKRKLSSRL
notes: purified
- Km [1, 9]: 467 µM
- Km [1, 10]: 470 ± 60 µM

B5: Arthrobacter globiformis uricase, wild type (R49S variant, referred to as wild type), SEQ ID NO: 6 (Arthrobacter globiformis; R49S) (protein)
chain: MTATAETSTGTKVVLGQNQYGKAEVRLVKVTRNTARHEIQDLNVTSQLSGDFEAAHTAGDNAHVVATDTQKNTVYAFARDGFATTEEFLLRLGKHFTEGFDWVTGGRWAAQQFFWDRINDHDHAFSRNKSEVRTAVLEISGSEQAIVAGIEGLTVLKSTGSEFHGFPRDKYTTLQETTDRILATDVSARWRYNTVEVDFDAVYASVRGLLLKAFAETHSLALQQTMYEMGRAVIETHPEIDEIKMSLPNKHHFLVDLQPFGQDNPNEVFYAADRPYGLIEATIQREGSRAD
notes: His6 (C); made in house; host or cells: E. coli
- Km [3]: 270 ± 80 µM
- kcat [3]: 2.3 ± 0.2 s⁻¹

B6: Arthrobacter globiformis uricase variant MedU_5E9, N33E/A35D/A83G/A145T/A148S/V195D/A204D/A213G/L220K/K244S/Y270H, SEQ ID NO: 164 (Arthrobacter globiformis; … (protein)
chain: MTATAETSTGTKVVLGQNQYGKAEVRLVKVTRETDRHEIQDLNVTSQLSGDFEAAHTAGDNAHVVATDTQKNTVYAFARDGFGTTEEFLLRLGKHFTEGFDWVTGGRWAAQQFFWDRINDHDHAFSRNKSEVRTAVLEISGSEQTIVSGIEGLTVLKSTGSEFHGFPRDKYTTLQETTDRILATDVSARWRYNTDEVDFDAVYDSVRGLLLKGFAETHSKALQQTMYEMGRAVIETHPEIDEISMSLPNKHHFLVDLQPFGQDNPNEVFHAADRPYGLIEATIQREGSRAD
notes: R49S backbone, 291 aa; pET-26b(+), C-terminal His6, E. coli; non-PEGylated
- Km [4]: 800 ± 100 µM
- kcat [4]: 6.0 ± 0.4 s⁻¹

B7: chimeric pig-baboon uricase, wild type, SEQ ID NO: 5 (Sus scrofa; R291K/S46T/T301S) (protein)
chain: TYKKNDEVEFVRTGYGKDMIKVLHIQRDGKYHSIKEVATTVQLTLSSKKDYLHGDNSDVIPTDTIKNTVNVLAKFKGIKSIETFAVTICEHFLSSFKHVIRAQVYVEEVPWKRFEKNGVKHVHAFIYTPTGTHFCEVEQIRNGPPVIHSGIKDLKVLKTTQSGFEGFIKDQFTTLPEVKDRCFATQVYCKWRYHQGRDVDFEATWDTVRSIVLQKFAGPYDKGEYSPSVQKTLYDIQVLTLGQVPEIEDMEISLPNIHYLNIDMSKMGLINKEEVLLPLDNPYGKITGTVKRKLSSRL
notes: as for B5
- Km [5, 9]: 397 µM
- Km [5, 10]: 400 ± 50 µM

B8: Arthrobacter globiformis uricase variant MedU_1F1, A35D/A83G/L89G/V195E/Y203H/A204E/A213G/L220H/I243V/K244S/K250N, SEQ ID NO: 95 (Arthrobacter globiformis; … (protein)
chain: MTATAETSTGTKVVLGQNQYGKAEVRLVKVTRNTDRHEIQDLNVTSQLSGDFEAAHTAGDNAHVVATDTQKNTVYAFARDGFGTTEEFGLRLGKHFTEGFDWVTGGRWAAQQFFWDRINDHDHAFSRNKSEVRTAVLEISGSEQAIVAGIEGLTVLKSTGSEFHGFPRDKYTTLQETTDRILATDVSARWRYNTEEVDFDAVHESVRGLLLKGFAETHSHALQQTMYEMGRAVIETHPEIDEVSMSLPNNHHFLVDLQPFGQDNPNEVFYAADRPYGLIEATIQREGSRAD
notes: as for B6
- Km [6]: 370 ± 60 µM
- kcat [6]: 2.5 ± 0.1 s⁻¹

B9: Arthrobacter globiformis uricase variant MedU_5C9, A35D/A145H/A148S/V195D/A204D/A213G/K244S/K250N, SEQ ID NO: 144 (Arthrobacter globiformis; … (protein)
chain: MTATAETSTGTKVVLGQNQYGKAEVRLVKVTRNTDRHEIQDLNVTSQLSGDFEAAHTAGDNAHVVATDTQKNTVYAFARDGFATTEEFLLRLGKHFTEGFDWVTGGRWAAQQFFWDRINDHDHAFSRNKSEVRTAVLEISGSEQHIVSGIEGLTVLKSTGSEFHGFPRDKYTTLQETTDRILATDVSARWRYNTDEVDFDAVYDSVRGLLLKGFAETHSLALQQTMYEMGRAVIETHPEIDEISMSLPNNHHFLVDLQPFGQDNPNEVFYAADRPYGLIEATIQREGSRAD
notes: as for B6
- Km [7]: 340 ± 80 µM
- kcat [7]: 2.4 ± 0.1 s⁻¹

B10: Arthrobacter globiformis uricase variant MedU_5B8, A35D/A83G/A145T/A148S/V195E/A204D/A213G/L220H/I243V/K244S, SEQ ID NO: 134 (Arthrobacter globiformis; … (protein)
chain: MTATAETSTGTKVVLGQNQYGKAEVRLVKVTRNTDRHEIQDLNVTSQLSGDFEAAHTAGDNAHVVATDTQKNTVYAFARDGFGTTEEFLLRLGKHFTEGFDWVTGGRWAAQQFFWDRINDHDHAFSRNKSEVRTAVLEISGSEQTIVSGIEGLTVLKSTGSEFHGFPRDKYTTLQETTDRILATDVSARWRYNTEEVDFDAVYDSVRGLLLKGFAETHSHALQQTMYEMGRAVIETHPEIDEVSMSLPNKHHFLVDLQPFGQDNPNEVFYAADRPYGLIEATIQREGSRAD
notes: as for B6
- Km [8]: 390 ± 80 µM
- kcat [8]: 3.9 ± 0.2 s⁻¹
